Biological target: T1, cynomolgus LAG-3 on CHO cells (cynomolgus)
T1 construct: whole, on cells; also called CHO::cyLAG-3; CHO cells transfected with cynomolgus LAG-3
Assay: FACS on CHO cells transfected with cynomolgus LAG-3
Method: 5×10⁴ cells per well were pre-incubated for 1 h in ice-cold PBS containing 5% fetal calf serum (PBS-FCS). […] Cells were washed twice in ice-cold PBS using centrifugation at 300×g and then incubated with a rabbit anti-lipocalin primary antibody (polyclonal rabbit anti-hTlc, Pieris) for 30 min on ice. Cells were then again washed twice in ice-cold PBS, re-suspended in PBS-FCS and incubated 30 min on ice with an antibody labelled with Alexafluor647 (Jackson Immunologics). Cells were subsequently washed and analyzed using intellicyt IQue Flow cytometer (Intellicyt). Fluorescent data generated by lipocalin mutein binding to LAG-3 expressing cells were analyzed using Forecyt software and resulted geometric fluorescent mean were plotted and fitted using Graphpad software.

B1: benchmark anti-LAG-3 antibody, BMS 986016 (SEQ ID NOs: 5 and 6) (antibody, V domains shown)
VH: QVQLQQWGAGLLKPSETLSLTCAVYGGSFSDYYWNWIRQPPGKGLEWIGEINHRGSTNSNPSLKSRVTLSLDTSKNQFSLKLRSVTAADTAVYYCAFGYSDYEYNWFDPWGQGTLVTVSS
VL: EIVLTQSPATLSLSPGERATLSCRASQSISSYLAWYQQKPGQAPRLLIYDASNRATGIPARFSGSGSGTDFTLTISSLEPEDFAVYYCQQRSNWPLTFGQGTNLEIKR
Binder B1 has an EC50 of 21 nM.

— patent US20190031729A1 (Pieris, published 2019)
